Data reported in patent publication EP4624485A1, “PEPTIDE THAT TARGETS MACROPHAGES AND USES THEREOF” (Consejo Superior De Investigaciones Científicas, priority 2024, dated 2025).
Bridge positions count the residues as written; N and C are the ends. Ends that are not written are not given here. Peptide text beside a SMILES is read from it. * marks the point of attachment. 5FAM = O=C1OC2(c3ccc(O)cc3Oc3cc(O)ccc32)c2ccc(C(=O)*)cc21; Vert = not defined here; Ahx = NCCCCCC(=O)O

Key:
human recombinant CD206 = target: T1, human recombinant CD206 (Homo sapiens, UniProt P22897); experiment: Quartz Crystal Microbalance (QCM) binding to PAH/CD206 multilayer; details: peptides 10µM in PBS, curve fitting, read-out: constant of association
T1 construct: purchased R&D systems 2534-MR-050/CF
T1 sequence (P22897 19-1456): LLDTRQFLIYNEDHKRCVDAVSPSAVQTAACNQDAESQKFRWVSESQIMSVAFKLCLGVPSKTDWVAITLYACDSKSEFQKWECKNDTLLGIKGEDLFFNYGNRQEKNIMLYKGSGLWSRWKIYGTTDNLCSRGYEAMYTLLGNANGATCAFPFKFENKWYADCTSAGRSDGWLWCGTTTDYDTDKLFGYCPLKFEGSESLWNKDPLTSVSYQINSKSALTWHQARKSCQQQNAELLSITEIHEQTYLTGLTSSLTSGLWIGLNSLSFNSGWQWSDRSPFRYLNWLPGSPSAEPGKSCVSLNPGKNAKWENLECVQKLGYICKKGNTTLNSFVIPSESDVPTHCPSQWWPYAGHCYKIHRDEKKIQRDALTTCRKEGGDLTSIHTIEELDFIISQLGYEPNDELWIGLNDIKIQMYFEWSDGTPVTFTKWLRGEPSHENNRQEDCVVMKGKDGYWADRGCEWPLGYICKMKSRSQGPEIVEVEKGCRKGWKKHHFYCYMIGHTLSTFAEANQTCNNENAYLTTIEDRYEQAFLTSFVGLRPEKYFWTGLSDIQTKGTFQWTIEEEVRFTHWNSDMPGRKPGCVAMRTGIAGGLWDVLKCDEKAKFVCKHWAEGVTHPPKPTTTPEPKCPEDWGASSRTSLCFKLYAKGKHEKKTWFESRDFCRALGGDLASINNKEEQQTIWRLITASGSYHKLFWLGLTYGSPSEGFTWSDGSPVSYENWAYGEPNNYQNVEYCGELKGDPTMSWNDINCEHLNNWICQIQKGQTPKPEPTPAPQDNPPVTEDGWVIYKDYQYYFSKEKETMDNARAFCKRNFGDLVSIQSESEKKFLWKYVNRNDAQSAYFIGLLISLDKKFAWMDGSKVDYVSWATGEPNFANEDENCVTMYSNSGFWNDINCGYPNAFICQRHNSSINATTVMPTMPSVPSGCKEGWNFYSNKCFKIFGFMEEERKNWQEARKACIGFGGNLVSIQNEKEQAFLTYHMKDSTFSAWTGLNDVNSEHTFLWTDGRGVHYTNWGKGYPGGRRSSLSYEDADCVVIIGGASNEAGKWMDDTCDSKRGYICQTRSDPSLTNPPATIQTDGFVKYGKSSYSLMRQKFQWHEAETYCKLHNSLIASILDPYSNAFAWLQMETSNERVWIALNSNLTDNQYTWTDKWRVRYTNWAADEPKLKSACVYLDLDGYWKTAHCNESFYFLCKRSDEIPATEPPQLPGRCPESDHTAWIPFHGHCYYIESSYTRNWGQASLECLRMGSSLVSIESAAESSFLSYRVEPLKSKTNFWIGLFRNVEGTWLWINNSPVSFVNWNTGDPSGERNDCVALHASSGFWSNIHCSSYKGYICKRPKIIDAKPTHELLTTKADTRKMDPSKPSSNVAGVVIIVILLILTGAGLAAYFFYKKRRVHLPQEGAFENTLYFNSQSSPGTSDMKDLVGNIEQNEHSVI
From the text: To confirm the capacity of MACTIDE to bind to CD206, we evaluated binding to recombinant CD206 included in a viscoelastic film, using Quartz Crystal Microbalance (QCM). QCM is a powerful technique used to study label-free ligand-receptor interactions in solution (Baltus, R. E. et al., Langmuir 2007, 23 (7), 3880-3885), wherein peptide binding and dissociation is sensed through a mass increase or decrease on a resonating crystal surface functionalized with the receptor. Here, we evaluated the mass changes of MACTIDE when binding and dissociating in solution to CD206 immobilized on a viscoelastic film, deposited on a gold-modified quartz crystal resonating at 5 MHz. […]
The Quartz Crystal Microbalance (QCM) used was QCM200 system from Stanford Research Systems (Sunnyvale, CA, USA). […] Then, a baseline with 500µL of mQ at pH 8 was recorded, the measurement was paused and then 5µL of a 1mg/mL solution in PBS were added (human recombinant CD206, Cat # 2534-MR-050/CF from R&D systems, reconstituted with 50µL of mQ); final concentration of CD206 in the cell: 0.01 mg/mL. […] For peptides, 500µL of PBS were placed in the cell and the baseline was recorded, the measurement was then paused and 50µL of a 100µM solution of peptides in PBS were gently deposited on the cell and the measurement was resumed. […]

[1] = system: IL4-stimulated macrophages; experiment: In vitro photodynamic therapy, MTT cell viability, IL4-stimulated macrophages; type: cell-based, human; details: with and without irradiation, 30µM
[2] = system: (LPS + IFNy)-stimulated macrophages; experiment: In vitro photodynamic therapy, MTT cell viability, (LPS + IFNγ)-stimulated macrophages; type: cell-based, human; details: with and without irradiation, 30µM
[3] = mouse, in vivo
[4] = target: T2, human recombinant CD206 (Cat # 2534-MR-050/CF from R&D systems) (human, UniProt P22897 19-1383, limits assumed); experiment: QCM (summary of example 3, Fig. 3)
T2 construct: Bought recombinant protein; also called Macrophage Mannose Receptor 1; PAH/CD206 multilayer
T2 sequence: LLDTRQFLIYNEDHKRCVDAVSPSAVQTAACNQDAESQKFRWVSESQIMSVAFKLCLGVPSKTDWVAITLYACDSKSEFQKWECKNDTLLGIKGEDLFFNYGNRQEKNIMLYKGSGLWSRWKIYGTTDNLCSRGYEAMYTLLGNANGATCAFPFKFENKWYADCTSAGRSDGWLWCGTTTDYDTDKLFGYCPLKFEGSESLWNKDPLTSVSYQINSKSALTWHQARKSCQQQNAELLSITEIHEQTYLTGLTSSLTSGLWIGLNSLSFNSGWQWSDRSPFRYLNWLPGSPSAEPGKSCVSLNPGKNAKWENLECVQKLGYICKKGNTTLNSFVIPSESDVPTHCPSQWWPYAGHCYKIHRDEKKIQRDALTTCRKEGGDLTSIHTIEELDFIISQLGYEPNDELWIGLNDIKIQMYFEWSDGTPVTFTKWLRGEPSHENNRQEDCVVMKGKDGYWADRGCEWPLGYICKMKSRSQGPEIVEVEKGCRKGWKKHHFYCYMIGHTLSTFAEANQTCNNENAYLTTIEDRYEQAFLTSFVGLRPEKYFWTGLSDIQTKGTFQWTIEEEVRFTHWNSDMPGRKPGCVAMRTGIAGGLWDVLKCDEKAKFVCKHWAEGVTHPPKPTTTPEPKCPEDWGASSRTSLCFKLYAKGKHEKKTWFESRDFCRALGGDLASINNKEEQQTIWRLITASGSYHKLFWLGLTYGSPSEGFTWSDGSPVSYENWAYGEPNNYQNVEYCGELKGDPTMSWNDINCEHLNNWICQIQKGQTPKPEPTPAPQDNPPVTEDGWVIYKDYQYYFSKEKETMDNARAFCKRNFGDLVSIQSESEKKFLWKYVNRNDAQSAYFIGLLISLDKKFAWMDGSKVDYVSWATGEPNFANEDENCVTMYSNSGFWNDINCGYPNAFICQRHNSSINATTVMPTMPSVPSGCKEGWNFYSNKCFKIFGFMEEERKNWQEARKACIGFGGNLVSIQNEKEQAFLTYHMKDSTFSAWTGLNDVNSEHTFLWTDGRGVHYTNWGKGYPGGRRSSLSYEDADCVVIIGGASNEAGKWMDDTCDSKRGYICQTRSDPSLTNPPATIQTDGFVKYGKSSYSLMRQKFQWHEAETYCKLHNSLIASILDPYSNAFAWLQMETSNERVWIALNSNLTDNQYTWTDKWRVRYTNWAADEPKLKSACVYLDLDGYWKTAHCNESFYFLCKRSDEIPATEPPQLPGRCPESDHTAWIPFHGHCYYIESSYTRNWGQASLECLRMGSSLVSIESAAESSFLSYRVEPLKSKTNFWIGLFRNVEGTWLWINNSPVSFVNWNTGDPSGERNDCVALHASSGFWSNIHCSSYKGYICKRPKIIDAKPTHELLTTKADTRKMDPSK

[5] = target: T3, Bovine Serum Albumin (BSA, Cat # A7906, Sigma-Aldrich) (bovine, UniProt P02769 25-607); experiment: QCM, peptide in PBS on PAH/BSA control multilayer
T3 construct: Control protein deposited on PAH as the control multilayer; also called PAH/BSA control multilayer

[6] = target: T2, human recombinant CD206 (Cat # …); experiment: QCM, PAH/CD206 multilayer, curves fitted with TraceDrawer

T3 sequence (P02769 25-607 limits assumed): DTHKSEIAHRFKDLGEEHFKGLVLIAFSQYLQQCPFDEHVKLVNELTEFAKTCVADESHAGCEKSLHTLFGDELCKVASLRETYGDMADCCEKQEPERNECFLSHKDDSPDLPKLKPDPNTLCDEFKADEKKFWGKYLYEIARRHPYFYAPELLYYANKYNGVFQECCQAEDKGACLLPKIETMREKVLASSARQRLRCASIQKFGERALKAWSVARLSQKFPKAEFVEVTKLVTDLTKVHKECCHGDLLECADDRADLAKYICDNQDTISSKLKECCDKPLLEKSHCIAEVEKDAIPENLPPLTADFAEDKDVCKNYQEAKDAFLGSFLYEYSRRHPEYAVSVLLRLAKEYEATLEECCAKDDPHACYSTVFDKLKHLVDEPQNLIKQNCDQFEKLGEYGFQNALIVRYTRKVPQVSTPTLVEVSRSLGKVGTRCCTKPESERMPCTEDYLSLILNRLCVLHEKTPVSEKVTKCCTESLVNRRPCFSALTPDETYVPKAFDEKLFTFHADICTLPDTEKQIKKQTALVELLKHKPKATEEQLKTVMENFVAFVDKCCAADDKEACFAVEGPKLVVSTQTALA

Row | Molecule | kon at 10 µM (human recombinant CD206) [M⁻¹ s⁻¹] | binding result [5] | Kd [6] [µM] | koff [6] [s⁻¹] | kon [6] [M⁻¹ s⁻¹] | also measured
1 | CSPGAK [mUNO, CSPGAK] | 1400 | – | – | – | – | –
2 | CC[C@H](C)[C@@H]1NC(=O)[C@@H]2CCCN2C(=O)[C@@H]2CCCN2C(=O)[C@H]([C@@H](C)CC)NC(=O)[C@H](CO)NC(=O)[C@H](CCCCN)NC(=O)[C@H]([C@@H](C)O)NC(=O)[C@@H](NC(=O)CN)CSSC[C@@H](C(=O)N[C@@H](CO)C(=O)N2CCC[C@H]2C(=O)NCC(=O)N[C@@H](C)C(=O)N[C@@H](CCCCN)C(=O)O)NC1=O [MACTIDE, GCTKSIPPICSPGAK] (H-GCTKSIPPICSPGAK-OH; disulfide 2-10) | 650 | – | – | – | – | –
3 | Vert-CtrlPep: control conjugate, Vert-Ahx- on AKPCGS (SEQ ID NO: 8) ({Vert-Ahx}-AKPCGS; reading uncertain) | – | – | – | – | – | toxicity [1]: no toxicity; toxicity [2]: no toxicity
4 | CC[C@H](C)[C@@H]1NC(=O)[C@@H]2CCCN2C(=O)[C@@H]2CCCN2C(=O)[C@H]([C@@H](C)CC)NC(=O)[C@H](CO)NC(=O)[C@H](CCCCN)NC(=O)[C@H]([C@@H](C)O)NC(=O)[C@@H](NC(=O)CNC(=O)CCCCCNC(=O)c2ccc3c(c2)C(=O)OC32c3ccc(O)cc3Oc3cc(O)ccc32)CSSC[C@@H](C(=O)N[C@@H](CO)C(=O)N2CCC[C@H]2C(=O)NCC(=O)N[C@@H](C)C(=O)N[C@@H](CCCCN)C(=O)O)NC1=O [FAM-MACTIDE] ({5FAM-Ahx}-GCTKSIPPICSPGAK-OH; disulfide 2-10) | – | – | – | – | – | blood half-life [3]: the same as those obtained previously for FAM-mUNO
5 | GCTKSIPPICSPGAK (disulfide 2-10, Monocyclic through the C2-C10 disulfide; also called the peptide of the invention) [MACTIDE] | – | no binding (tested: 10µM) | 0.38 | 0.00025 | 650 | fold higher affinity (against mUNO) [4]: 15 fold; fold slower dissociation constant against mUNO [6]: 30 fold
6 | CSPGAK (also called mUNO peptide) [mUNO] | – | no binding (tested: 10µM) | 6 | 0.0087 | 1400 | –
